B1: BAG family molecular chaperone regulator 4 (Homo sapiens), O95429 (parent)
chain: MSALRRSGYGPSDGPSYGRYYGPGGGDVPVHPPPPLYPLRPEPPQPPISWRVRGGGPAETTWLGEGGGGDGYYPSGGAWPEPGRAGGSHQEQPPYPSYNSNYWNSTARSRAPYPSTYPVRPELQGQSLNSYTNGAYGPTYPPGPGANTASYSGAYYAPGYTQTSYSTEVPSTYRSSGNSPTPVSRWIYPQQDCQTEAPPLRGQVPGYPPSQNPGMTLPHYPYGDGNRSVPQSGPTVRPQEDAWASPGAYGMGGRYPWPSSAPSAPPGNLYMTESTSPWPSSGSPQSPPSPPVQQPKDSSYPYSQSDQSMNRHNFPCSVHQYESSGTVNNDDSDLLDSQVQYSAEPQLYGNATSDHPNNQDQSSSLPEECVPSDESTPPSIKKIIHVLEKVQYLEQEVEEFVGKKTDKAYWLLEEMLTKELLELDSVETGGQDSVRQARKEAVCKIQAILEKLEKKGL
partner: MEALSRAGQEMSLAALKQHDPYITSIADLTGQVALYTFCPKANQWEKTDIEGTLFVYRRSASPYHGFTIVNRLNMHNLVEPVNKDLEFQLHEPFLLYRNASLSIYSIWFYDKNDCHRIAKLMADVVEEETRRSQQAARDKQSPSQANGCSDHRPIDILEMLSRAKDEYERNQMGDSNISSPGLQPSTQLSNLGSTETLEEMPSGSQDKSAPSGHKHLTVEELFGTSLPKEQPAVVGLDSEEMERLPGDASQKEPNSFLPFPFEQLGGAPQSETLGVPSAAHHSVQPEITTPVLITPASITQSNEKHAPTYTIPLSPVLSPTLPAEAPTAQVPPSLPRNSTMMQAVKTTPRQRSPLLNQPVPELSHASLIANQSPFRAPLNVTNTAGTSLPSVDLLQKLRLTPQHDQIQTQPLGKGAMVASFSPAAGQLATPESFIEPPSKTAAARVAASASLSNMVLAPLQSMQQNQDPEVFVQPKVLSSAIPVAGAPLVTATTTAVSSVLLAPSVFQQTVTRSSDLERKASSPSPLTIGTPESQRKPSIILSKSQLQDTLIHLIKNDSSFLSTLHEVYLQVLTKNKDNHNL

Variants of: B1
Conditions: with dcp1a_human DCP1A

Variant	effect of a mutation on the interaction
D424A	disrupting interaction

Source: IntAct's records for PubMed 25036637
